# T1: RXRα (yeast) (Mus musculus, UniProt P28700 SEQ:1-467)
# T1 sequence: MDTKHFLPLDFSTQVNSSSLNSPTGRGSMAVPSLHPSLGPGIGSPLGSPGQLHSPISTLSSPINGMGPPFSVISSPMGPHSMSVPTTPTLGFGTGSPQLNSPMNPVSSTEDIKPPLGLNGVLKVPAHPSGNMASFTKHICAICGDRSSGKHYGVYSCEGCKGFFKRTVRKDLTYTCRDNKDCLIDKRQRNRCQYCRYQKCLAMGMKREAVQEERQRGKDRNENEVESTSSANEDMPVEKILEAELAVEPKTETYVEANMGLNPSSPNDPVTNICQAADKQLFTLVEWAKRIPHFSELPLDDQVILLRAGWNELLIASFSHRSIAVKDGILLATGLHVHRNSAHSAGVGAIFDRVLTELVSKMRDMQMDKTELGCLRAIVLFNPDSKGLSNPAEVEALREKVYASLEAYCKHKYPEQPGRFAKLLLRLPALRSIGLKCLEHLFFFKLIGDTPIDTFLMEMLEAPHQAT
# T2: RARα1/RXRα heterodimer (yeast) (Homo sapiens/Mus musculus, UniProt P10276;P28700 P10276:1-462,P28700:1-467)
# T2 sequence 1: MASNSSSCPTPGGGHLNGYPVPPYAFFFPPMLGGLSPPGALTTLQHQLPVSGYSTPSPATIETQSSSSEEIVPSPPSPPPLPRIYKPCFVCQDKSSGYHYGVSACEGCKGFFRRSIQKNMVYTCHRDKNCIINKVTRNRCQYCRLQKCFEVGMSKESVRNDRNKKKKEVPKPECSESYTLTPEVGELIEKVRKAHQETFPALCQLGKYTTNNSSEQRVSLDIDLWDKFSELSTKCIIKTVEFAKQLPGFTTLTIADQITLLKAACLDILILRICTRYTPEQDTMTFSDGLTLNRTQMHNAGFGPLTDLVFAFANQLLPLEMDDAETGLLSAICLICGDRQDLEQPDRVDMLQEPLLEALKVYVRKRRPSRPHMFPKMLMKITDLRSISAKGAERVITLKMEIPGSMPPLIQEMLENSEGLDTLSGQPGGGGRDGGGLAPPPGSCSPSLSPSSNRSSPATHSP
# T2 sequence 2: T1 sequence
# B1: IR0 (dsDNA)
# DNA 1: AGGTCATGACCT
# DNA 2: AGGTCATGACCT
# B2: DR3 (dsDNA)
# DNA 1: AGGTCAGCGAGGTCA
# DNA 2: TGACCTCGCTGACCT
# B3: DR2 (dsDNA)
# DNA 1: AGGTCAGCAGGTCA
# DNA 2: TGACCTGCTGACCT
# B4: DR5 (dsDNA)
# DNA 1: AGGTCAGCGAGAGGTCA
# DNA 2: TGACCTCTCGCTGACCT
# B5: DR1 (dsDNA)
# DNA 1: AGGTCAGAGGTCA
# DNA 2: TGACCTCTGACCT
# B6: DR4 (dsDNA)
# DNA 1: AGGTCAGCGAAGGTCA
# DNA 2: TGACCTTCGCTGACCT
# Columns and labels:
# Conditions in all cases: protein: extract; tags: yeast-expressed
# RXRα (yeast) [1] = target: T1, RXRα (yeast); assay: cell_activity; yeast, ligand dependent; low absolute activity
# From the text: (§1) FIG. 13A, Sequences of the response elements used in this study consisting of a direct repeat of a hexamer sequence spaced by one to five base pairs (DR1–DR5), or an inverted repeat of the same hexamer with no spacing (IR0). The hexamer repeats are indicated by arrows and the spacer sequences are presented in lower case. FIG. 13B, Transactivation of URA3 reporter genes containing the different elements by homodimers and heterodimers of RARα and RXRα. The sequences represented in FIG. 13A were cloned into the promoter of a URA3 reporter gene carried on a centromeric plasmid to generate the DRn-URA3 reporter series and IR0-URA3. The reporters were introduced into a yeast strain containing multicopy vectors expressing RARα, RXRα or no receptor. […] "Control" indicates the basal reporter activity in the absence of receptors (using "empty" expression vectors), and the experiments using only one receptor were performed in the presence of the corresponding "empty" vector. The white, hatched and black columns indicate the reporter activity in the presence of no ligand, all-trans RA and 9-cis RA, respectively. The reporter activities are given as units of OMPdecase activity per minute per mg protein, and the values represent the average of at least 2 experiments using at least 2 different clones per experiment. […] Similar amounts of each probe (50, 000 cpm) were used in the assays.
# [2] = target: T2, RARα1/RXRα heterodimer (yeast); assay: cell_activity; yeast, 500 nM 9-cis RA; low absolute activity
# From the text: as §1
# [3] = target: T2, RARα1/RXRα heterodimer (yeast); assay: cell_activity; yeast, 500 nM 9-cis RA
# From the text: as §1
# [4] = target: T2, RARα1/RXRα heterodimer (yeast); assay: cell_activity; yeast URA3 reporter, 500 nM 9-cis RA
# From the text: as §1
# RXRα (yeast) [5] = target: T1, RXRα (yeast); assay: cell_activity; yeast, 9-cis RA
# From the text: as §1
binder,measurement,setting,value
B1,activity,RXRα (yeast) [1],20 fold over control
same,activity,[2],40 fold over control
B2,activity,[3],~10 fold over control
B3,activity,[3],~10 fold over control
B4,activity,[4],60 fold over control
B5,activity,RXRα (yeast) [5],≥ 30 fold
same,activity,[4],36 fold over control
B6,activity,[3],~10 fold over control
